Measured values taken from patent US20190359683A1 (Stanford University, published 2019).

Columns and labels:
[1] = molecular target: T1, recombinantly produced ciliary neurotrophic factor (CNTF) (UniProt P26441 1-200, limits assumed); assay: ELISA
T1 sequence (looked up): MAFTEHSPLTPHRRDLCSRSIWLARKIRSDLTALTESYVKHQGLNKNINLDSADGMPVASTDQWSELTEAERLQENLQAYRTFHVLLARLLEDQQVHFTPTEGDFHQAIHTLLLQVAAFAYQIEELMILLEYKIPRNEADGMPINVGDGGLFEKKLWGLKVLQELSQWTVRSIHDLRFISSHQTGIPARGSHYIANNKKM

[2] = molecular target: T2, mouse CLCF1 (mCLCF1) (mouse, UniProt Q9QZM3 28-225, limits assumed); assay: ELISA
T2 construct: also called serum CLCF1 (mouse)
T2 sequence (looked up): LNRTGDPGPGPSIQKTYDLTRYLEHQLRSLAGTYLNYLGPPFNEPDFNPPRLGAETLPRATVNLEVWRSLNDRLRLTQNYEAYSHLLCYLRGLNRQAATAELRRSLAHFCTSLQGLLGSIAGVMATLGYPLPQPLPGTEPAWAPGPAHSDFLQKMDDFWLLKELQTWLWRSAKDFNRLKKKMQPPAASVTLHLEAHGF

[3] = molecular target: T3, recombinant human cardiotrophin-like cytokine factor 1 (CLCF1) (human, UniProt Q9UBD9 28-225, limits assumed); assay: ELISA: incubated with CLCF1 4 h at room temperature, complex captured on anti-mouse Fc plate, detected with rabbit anti-CLCF1
T3 construct: also called hCLCF1
T3 sequence (looked up): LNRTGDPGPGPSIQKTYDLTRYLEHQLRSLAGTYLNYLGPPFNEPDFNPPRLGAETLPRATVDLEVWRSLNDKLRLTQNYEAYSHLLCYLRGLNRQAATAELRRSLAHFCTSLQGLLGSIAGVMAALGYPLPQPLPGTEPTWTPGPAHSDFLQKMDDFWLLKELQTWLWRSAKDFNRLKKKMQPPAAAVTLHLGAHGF

B1: eCNTFR-Fc (soluble engineered CNTFR fused to mouse IgG2a Fc) (Fc fusion)
chain: QRHSPQEAPHVQYERLGSDVTLPCGTANWDAAVTWRVNGTDLAPDLLNGSQLVLHGLELGHSGLYACFHRDSWHLRHQVLLHVGLPPQEPVLSCRSNTYPKGFYCSWHLPTPTYIPNTFNVTVLHGSKIMVCEKDPALKNRCHIRYMHLFSPIKHNVSISVSNALGHNATAITFDEFTIVKPDPPENVVARPVPSNPRRLEVTWQTPSTWPDPEFFPLKFFLRYRPLILDQWQHVELSDGTAHTIAAAYAGKEYIIQVAAKDNEFGTWSDWSVAAHATPWTEEPRHLTTEAQAAETTTSTTSSLAPPPTTKICDPGELGSRRLEPRGPTIKPCPPCKCPAPNLLGGPSVFIFPPKIKDVLMISLSPIVTCVVVDVSEDDPDVQISWFVNNVEVHTAQTQTHREDYNSTLRVVSALPIQHQDWMSGKEFKCKVNNKDLPAPIERTISKPKGSVRAPQVYVLPPPEEEMTKKQVTLTCMVTDFMPEDIYVEWTNNGKTELNYKNTEPVLDSDGSYFMYSKLRVEKKNWVERNSYSCSVVHEGLHNHHTTKSFSRTPGK
notes: Made in HEK293; also called Fc fusion eCNTFR; engineered CLCF1 trap
B1: no binding [1]; binds [2]; binds [3].
